From article PMC8284890 (Science Advances, 2021)

Target: the molecule itself
Test: cryo-EM particle classification

B1: NTD-truncated human NPC1L1 in the cholesterol-enriched form (domain or fragment, UniProt Q9UHC9-2 265-1332, looked up)
chain: AIARPQALDSTFYLGQMPGSLVLIIILCSVFAVVTILLVGFRVAPARDKSKMVDPKKGTSLSDKLSFSTHTLLGQFFQGWGTWVASWPLTILVLSVIPVVALAAGLVFTELTTDPVELWSAPNSQARSEKAFHDQHFGPFFRTNQVILTAPNRSSYRYDSLLLGPKNFSGILDLDLLLELLELQERLRHLQVWSPEAQRNISLQDICYAPLNPDNTSLYDCCINSLLQYFQNNRTLLLLTANQTLMGQTSQVDWKDHFLYCANAPLTFKDGTALALSCMADYGAPVFPFLAIGGYKGKDYSEAEALIMTFSLNNYPAGDPRLAQAKLWEEAFLEEMRAFQRRMAGMFQVTFMAERSLEDEINRTTAEDLPIFATSYIVIFLYISLALGSYSSWSRVMVDSKATLGLGGVAVVLGAVMAAMGFFSYLGIRSSLVILQVVPFLVLSVGADNIFIFVLEYQRLPRRPGEPREVHIGRALGRVAPSMLLCSLSEAICFFLGALTPMPAVRTFALTSGLAVILDFLLQMSAFVALLSLDSKRQEASRLDVCCCVKPQELPPPGQGEGLLLGFFQKAYAPFLLHWITRGVVLLLFLALFGVSLYSMCHISVGLDQELALPKDSYLLDYFLFLNRYFEVGAPVYFVTTLGYNFSSEAGMNAICSSAGCNNFSFTQKIQYATEFPEQSYLAIPASSWVDDFIDWLTPSSCCRLYISGPNKDKFCPSTVNSLNCLKNCMSITMGSVRPSVEQFHKYLPWFLNDRPNIKCPKGGLAAYSTSVNLTSDGQVLTSRFMAYHKPLKNSQDYTEALRAARELAANITADLRKVPGTDPAFEVFPYTITNVFYEQYLTILPEGLFMLSLCLVPTFAVSCLLLGLDLRSGLLNLLSIVMILVDTVGFMALWGISYNAVSLINLVSAVGMSVEFVSHITRSFAISTKPTWLERAKEATISMGSAVFAGVAMTNLPGILVLGLAKAQLIQIFFFRLNLLITLLGLLHGLVFLPVILSYVGPDVNPALALEQKRAEEAVAAVMVASCPNHPSRVSTADNIYVNHSFEGSIKGAGAISNFLPNNGRQF
modifications: N-glycosylated (10 N-glycosylation sites seen in the density map)
B1: binds.
